Measurements reported in patent US20120266260A1.

Key:
[1] = biological target: synthetic IgA1 hinge-region glycopeptide linked to BSA with 3 GalNAc residues (HR-GalNAc-BSA) (bovine) (UniProt P02769); experiment: ELISA, wells with HR-GalNAc-BSA treated with unlabeled HAA (20 ug/ml); competitor: IgG from cell lines of IgAN patients
[2] = biological target: Gal-deficient IgA1 (Mce) myeloma protein (human) (UniProt P01876); experiment: Western blot, membrane pre-incubated with unlabeled HAA (20 ug/ml); competitor: IgG purified from the serum of an IgAN patient; densitometry

- percent inhibition of IgG binding [1]: 78%
- percent reduction of IgG binding [2]: 66%
Substance: Helix aspersa agglutinin (HAA)
